The values that follow come from US20200325187A1 (Genentech, published 2020).

Numbering of substitutions follows the chain as printed.

The target of experiment [1] is T1, hVEGF-A (8-109) (human, UniProt P15692 214-315).
T1 sequence (looked up): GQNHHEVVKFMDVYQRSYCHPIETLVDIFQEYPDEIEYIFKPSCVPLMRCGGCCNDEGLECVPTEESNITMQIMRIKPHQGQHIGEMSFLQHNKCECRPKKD
Kind of experiment: spot phage ELISA. The procedure, abridged:
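Phage clones from four selection rounds were grown overnight at 37 °C with M13-KO7 helper phage. Bound phage was detected with anti-M13-HRP and TMB, with binding to BSA alone run in parallel as background.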
(In general: ELISA stands for enzyme-linked immunosorbent assay.)

Another experiment concerns the target T2, mouse VEGF-A 164 (mouse, UniProt Q00731-2 27-190).
T2 construct: also called mouse 164
T2 sequence (looked up): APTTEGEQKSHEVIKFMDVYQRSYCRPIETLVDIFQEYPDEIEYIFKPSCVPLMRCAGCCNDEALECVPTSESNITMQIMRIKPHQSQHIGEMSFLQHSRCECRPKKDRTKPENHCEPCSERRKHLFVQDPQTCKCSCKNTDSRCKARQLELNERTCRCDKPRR
Kind of experiment: SPR. How it is done: (§1) Depending on the format of the assay either a streptavidin sensor (SA) or a dextran-coated (CM5) sensor was utilized as described below.
(§2) Reaction was then quenched by addition of 10 molar excess of Glycine pH 8.0 and the sample was buffer exchanged into PBS using an Amicon 0.5 mL 3000 MWCO ultra-centrifugal filters (EMD Millipore). The biotinylation state of the protein was verified by LC-MS analysis. Biotinylated VEGF-A was then captured on the surface until a resonance unit (RU) signal of about ˜400. For immobilization of VEGF-A on CM5 sensor, the surface was first activated with a mixture of N-ethyl-N′-(3-dimethylaminopropyl)carbodiimide hydrochloride and N-hydroxysuccinimide (EDC/NHS) according to the supplier instructions. VEGF-A was then diluted into coupling buffer (0.1 M Acetate Buffer, pH 5.0) and injected until the signal reached about ˜400 RU followed by a wash with 1 M ethanolamine pH 8.0 to quench remaining activated sites.
On the technique in general: In SPR one partner is held on a chip, and binding of the other changes the refractive index at the surface.

Experiment [2] has as its target T3, human VEGF-A 165 (human, UniProt P15692-4 27-191). Kind of experiment: SPR. As to the method: as §1, §2
Target sequence in this assay (P15692 other isoform, or with tags, fused parts or gaps limits assumed): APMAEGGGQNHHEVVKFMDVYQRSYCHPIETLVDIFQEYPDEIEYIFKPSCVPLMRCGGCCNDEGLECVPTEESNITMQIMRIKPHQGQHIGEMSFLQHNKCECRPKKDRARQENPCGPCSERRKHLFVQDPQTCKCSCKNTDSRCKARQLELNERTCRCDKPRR
The target in experiment [3] is T1, hVEGF-A (8-109). Kind of experiment: SPR. As to the method: as §1, §2
Another experiment deals with T4, rat VEGF-A (rat, UniProt P16612-2 27-190, limits assumed).
T4 construct: also called rVEGF
T4 sequence (looked up): T2 sequence (looked up) with S10A, I14V, I75V
Kind of experiment: SPR. How it is done:
as §1, §2

Another experiment has as its target T5, rabbit VEGF-A (rabbit, UniProt G1T1L9 1-398).
T5 sequence: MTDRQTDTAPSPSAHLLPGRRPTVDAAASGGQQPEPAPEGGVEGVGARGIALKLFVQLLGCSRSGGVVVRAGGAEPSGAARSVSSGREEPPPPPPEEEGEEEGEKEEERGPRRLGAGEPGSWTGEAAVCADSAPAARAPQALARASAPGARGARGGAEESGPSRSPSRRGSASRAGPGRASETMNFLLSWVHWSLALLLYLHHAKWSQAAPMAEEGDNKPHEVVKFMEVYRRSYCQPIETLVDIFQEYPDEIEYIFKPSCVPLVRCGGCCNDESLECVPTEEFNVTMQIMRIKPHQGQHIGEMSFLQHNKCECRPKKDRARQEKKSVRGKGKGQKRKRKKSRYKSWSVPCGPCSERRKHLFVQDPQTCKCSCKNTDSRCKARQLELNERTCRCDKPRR
Kind of experiment: SPR. As to the method:
as §1, §2

Experiment [4] concerns the target T1, hVEGF-A (8-109). Put plainly: competition ELISA: VEGF-A (8-109) coated, constant KDR receptor, peptide titrated; blocked ligand: KDR. How it is done: (§3) Binding specificity of each peptide was established by competition ELISA. […] After blocking with block buffer (PBS with 0.5% BSA and 0.05% TWEEN®20) for 2 hours at room temperature, the receptor-Fc fusions or biotinylated receptors were serially diluted using assay buffer (PBS with 0.5% BSA and 0.05% TWEEN®20) and incubated for 1 hour at room temperature. […] Competition ELISA was conducted in an identical fashion as described above except after blocking, a mixture of serially diluted peptide containing a constant concentration of receptor-Fc fusion or biotinylated receptor (concentration of receptor was set to EC₆₀) was added and incubated for 1 hour. All recombinant human proteins and antibodies were purchased from R &D Systems (Minneapolis, Minn.).

The target of experiment [5] is T6, hVEGF-A (human, UniProt P15692-4 27-191, limits assumed). Put plainly: cell-based or functional assay.
A further experiment deals with T7, VEGF-D (human, UniProt O43915 93-201, limits assumed).
T7 sequence (looked up): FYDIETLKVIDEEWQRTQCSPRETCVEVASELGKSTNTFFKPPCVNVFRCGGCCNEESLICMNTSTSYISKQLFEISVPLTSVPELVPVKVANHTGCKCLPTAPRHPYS
Put plainly: competition ELISA: VEGF-D coated, constant Flt-4 receptor, peptide titrated.

Experiment [6] has as its target T3, human VEGF-A 165. Put plainly: competition ELISA: VEGF-A 165 coated, constant KDR receptor, peptide titrated; blocked ligand: KDR. How it is done:
as §3

A further experiment has as its target T8, hVEGF-A K48A (human, UniProt P15692-4 34-135, K48A).
T8 construct: position probably counted on the mature protein
T8 sequence (looked up): T1 sequence (looked up) with K41A
Put plainly: SPR. As to the method: as §1, §2

The next experiment concerns the target T9, hVEGF-A Q89A (human, UniProt P15692-4 34-135, Q89A).
T9 construct: position probably counted on the mature protein
T9 sequence (looked up): T1 sequence (looked up) with Q82A
Kind of experiment: SPR. As to the method:
as §1, §2

The target of experiment [7] is T6, hVEGF-A. Put plainly: SPR. As to the method: as §1, §2

B1: VEGF_CKP9.54.90 (designed binder)
chain: GCNIMLPFWGCGRDFECLAGCVCQYYQSCG
Broadly, the Kd is a measure of binding affinity in units of concentration. Higher therefore signals weaker binding. On to B1, for which, in the experiment with hVEGF-A (8-109) [1], the ELISA came to 2.3. In the experiment with hVEGF-A (8-109) [1], the “S/N vs BSA” value came to 29.5. Moreover, the Kd with mouse VEGF-A 164 worked out at 1.31 nM; in the experiment with human VEGF-A 165 [2] it was 0.89 nM; in the experiment with hVEGF-A (8-109) [3], 0.87 nM; with rat VEGF-A, 0.9 nM; with rabbit VEGF-A, 1.14 nM; with hVEGF-A K48A it was 0.19 nM. The values for the Kd with hVEGF-A Q89A and in the experiment with hVEGF-A [7] were 8.8 nM and 0.37 nM, respectively. In addition, the “IC50 (read off the curve)” value with hVEGF-A (8-109) [4] is roughly 20 nM; with hVEGF-A [5], roughly 60 nM; in the experiment with human VEGF-A 165 [6], roughly 30 nM. The binding result with VEGF-D is “no binding (tested: 5 µM)”.
